Laboratory results from the supplement of paper PMC10724198.
± gives the standard deviation of the averaged measurements.

Test system: Saccharomyces cerevisiae
Experiment: protein stability index of tFT-peptide fusion (C-terminal peptide) (PSI (0-1 scale)); higher = more stable (slower turnover)
Details: genetic background: wild type; temperature: 30 C
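Further: PSI is a weighted mean of sequencing reads over stability bins, variants kept only with over 10 reads, mCherry proximal and sfGFP distal, peptide attached via GGGS linker.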

| Sequence | protein stability index |
| --- | --- |
| RFLESNGRPFHK | 0.673 ± 0.0088 |
| KDNAPTLPQGGN | 0.662 ± 0.06 |
| PPLGPRARPPPR | 0.734 ± 0.024 |
| PHLPPSLFPSPP | 0.659 ± 0.073 |
| PSRDGNLYAQCR | 0.618 ± 0.048 |
| GYGPSFALRPDS | 0.651 ± 0.026 |
| VLLLLLSLLFGV | 0.5135 ± 0.0023 |
| SRFEPLSCEQCS | 0.66 ± 0.05 |
| ALFKESMLSTCA | 0.564 ± 0.022 |
| PHPPRPSTPPPT | 0.637 ± 0.059 |
| GEKDGAVGRGEV | 0.614 ± 0.02 |
| SLSIAPAPLDFP | 0.655 ± 0.084 |
| SLFLFCLRCLQF | 0.576 ± 0.037 |
| KHLNFNTNKRKD | 0.651 ± 0.0093 |
| LRCLTIILYSMV | 0.549 ± 0.033 |
| FVRWGWAVMLGG | 0.571 ± 0.013 |
| NTNEKKRQRKKK | 0.6389 ± 0.0037 |
| YASKNPSVVIFG | 0.68 ± 0.018 |
| FCSCLCGGEFVR | 0.69 ± 0.03 |
| PPPPLLPRTPPH | 0.54 ± 0.044 |
| PHPPRPPRAPPP | 0.634 ± 0.024 |
| IKRYYLDSMKRK | 0.576 ± 0.0069 |
| PPPRLAPTLLPA | 0.5999 ± 0.0046 |
| MEDSRSDSSGSP | 0.6534 ± 0.00074 |
| SAELGHTNLCRS | 0.6781 ± 0.0041 |

| Sequence | protein stability index |
| --- | --- |
| CGALSVLGWEPF | 0.71615 ± 0.0001 |
| GGGGGGGEWVGG | 0.656 ± 0.05 |
| FRYRLACRPIYQ | 0.616 ± 0.038 |
| GRTENKKPSIKL | 0.711 ± 0.058 |
| PLRALLPTRCNL | 0.732 ± 0.067 |
| LSFFYLLSSYFL | 0.62 ± 0.019 |
| RNTKGIIKKKKE | 0.702 ± 0.042 |
| PLSLRLCYLPWY | 0.701 ± 0.0086 |
| GMDGRGWGGSVV | 0.726 ± 0.038 |
| ERLLMLSGLRRA | 0.779 ± 0.1 |
| SGLPLLSSYATR | 0.72 ± 0.048 |
| FCVQRWWGEGGH | 0.6176 ± 0.0017 |
| PLPIHSHPPPVP | 0.615 ± 0.0068 |
| KSRLYVDVLMQR | 0.659 ± 0.077 |
| TSQASIRDLTNK | 0.579 ± 0.016 |
| LVLGRCWMSVPR | 0.535 ± 0.014 |
| GVVGTVEGGATG | 0.658 ± 0.037 |
| PRPGSTTPPAYR | 0.7163 ± 0.0053 |
| LPPPRPPASPSL | 0.677 ± 0.033 |
| PSQKRITDPRET | 0.683 ± 0.047 |
| LAEFTCTQGCSY | 0.67 ± 0.088 |
| YHPPLTIQSLGH | 0.694 ± 0.029 |
| PPPPAPPLPPPP | 0.707 ± 0.039 |
| TEGGSSKPSSNP | 0.704 ± 0.089 |
| QSRSEVFPCHAS | 0.848 ± 0.15 |

| Sequence | protein stability index |
| --- | --- |
| QSPSHSYLCHLF | 0.583 ± 0.097 |
| TTPRAILPLSSI | 0.67 ± 0.043 |
| PPPPRPASPGSP | 0.622 ± 0.065 |
| ERVGLISSRRGC | 0.696 ± 0.014 |
| ASLSKLTLKVTV | 0.586 ± 0.057 |
| AFVLTSRVFFPL | 0.721 ± 0.053 |
| GGGGVGSSGARV | 0.644 ± 0.068 |
| LGARGAGAPAPG | 0.7286 ± 0.0037 |
| AAGAGAPRRPLL | 0.683 ± 0.02 |
| SFVSDYIILIVL | 0.497 ± 0.081 |
| GWWGCGASVCGV | 0.72 ± 0.15 |
| VGDIGLEVKLFF | 0.72 ± 0.0076 |
| GLGVVHGYFLVE | 0.59 ± 0.025 |
| VPPLPPDSCTVT | 0.699 ± 0.073 |
| PFSTWLSSPSLP | 0.774 ± 0.07 |
| RQSGSDFYGRSY | 0.663 ± 0.032 |
| PLCLCCPIGIIS | 0.516 ± 0.008 |
| LKTLKHRLRHLE | 0.732 ± 0.034 |
| PEGLKKKKEKRI | 0.706 ± 0.049 |
| TQYTDNQTPITK | 0.6673 ± 0.0027 |
| KNRKKIKIVCVK | 0.559 ± 0.026 |
| HPLPSSHLPPRP | 0.75 ± 0.15 |
| SPPPPSRLPPPP | 0.748 ± 0.096 |
